Read-outs that look alike come from different tables or passages of the source. Square brackets hold non-standard residues; d marks the D form. Ends that are not written are not given here.
T1: human CCK-B receptor (human, UniProt P32239 1-447)
T1 sequence (looked up): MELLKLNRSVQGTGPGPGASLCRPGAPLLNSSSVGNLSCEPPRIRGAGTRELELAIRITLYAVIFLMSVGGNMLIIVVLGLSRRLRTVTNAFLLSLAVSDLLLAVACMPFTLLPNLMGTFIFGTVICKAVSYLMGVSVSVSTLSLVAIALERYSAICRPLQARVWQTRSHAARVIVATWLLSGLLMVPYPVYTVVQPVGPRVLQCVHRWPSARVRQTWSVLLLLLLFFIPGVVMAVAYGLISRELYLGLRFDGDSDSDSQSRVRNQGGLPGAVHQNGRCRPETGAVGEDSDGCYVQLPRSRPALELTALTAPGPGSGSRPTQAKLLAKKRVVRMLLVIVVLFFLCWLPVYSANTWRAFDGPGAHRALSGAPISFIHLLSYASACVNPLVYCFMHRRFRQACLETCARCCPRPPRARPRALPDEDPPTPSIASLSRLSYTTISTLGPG

T2: mouse CCK-B receptor (mouse, UniProt P56481 1-453)
T2 sequence (looked up): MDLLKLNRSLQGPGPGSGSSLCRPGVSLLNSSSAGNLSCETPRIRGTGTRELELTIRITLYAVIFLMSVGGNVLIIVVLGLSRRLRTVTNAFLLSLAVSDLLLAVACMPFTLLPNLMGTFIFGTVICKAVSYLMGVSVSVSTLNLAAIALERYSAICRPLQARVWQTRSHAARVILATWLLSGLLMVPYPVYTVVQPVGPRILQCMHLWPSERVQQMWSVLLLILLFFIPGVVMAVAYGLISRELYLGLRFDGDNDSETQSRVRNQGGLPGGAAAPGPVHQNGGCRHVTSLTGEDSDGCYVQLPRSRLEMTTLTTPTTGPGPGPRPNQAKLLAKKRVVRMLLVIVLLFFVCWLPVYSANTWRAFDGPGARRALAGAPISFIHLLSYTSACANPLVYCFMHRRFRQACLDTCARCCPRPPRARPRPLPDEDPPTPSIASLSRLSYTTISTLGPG


Tests used:
Assay in all cases: cell-based or functional assay
[1] = biological target: T1, human CCK-B receptor
[2] = biological target: T2, mouse CCK-B receptor
[3] = biological target: T1, human CCK-B receptor; remark: listed apart in the source
[4] = biological target: T2, mouse CCK-B receptor; remark: listed apart in the source
[5] = biological target: T3, human GLP-1 receptor (human, UniProt P43220 24-463)
Target sequence in this assay (P43220 24-463): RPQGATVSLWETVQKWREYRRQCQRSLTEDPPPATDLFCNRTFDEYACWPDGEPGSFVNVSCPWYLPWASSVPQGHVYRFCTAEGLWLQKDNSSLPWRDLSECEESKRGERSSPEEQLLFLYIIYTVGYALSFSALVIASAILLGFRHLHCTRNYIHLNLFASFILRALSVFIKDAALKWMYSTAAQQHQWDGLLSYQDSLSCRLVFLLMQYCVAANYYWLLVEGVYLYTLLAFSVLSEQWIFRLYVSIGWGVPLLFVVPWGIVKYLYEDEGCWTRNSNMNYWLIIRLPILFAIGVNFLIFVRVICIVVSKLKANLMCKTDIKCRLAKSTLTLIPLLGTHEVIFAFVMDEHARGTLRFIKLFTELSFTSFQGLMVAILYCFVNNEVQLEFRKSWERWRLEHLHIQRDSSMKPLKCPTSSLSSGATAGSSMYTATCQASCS

[6] = biological target: T3, human GLP-1 receptor; remark: listed apart in the source
Target sequence in this assay (P43220 24-463): as above

[7] = biological target: T3, human GLP-1 receptor; remark: listed apart in the source
[8] = biological target: T1, human CCK-B receptor; remark: listed apart in the source

Row | Molecule | hCCK-B R EC50 (p-ERK) [1] [nM] | mCCK-B R EC50 (p-ERK) [2] [nM] | hCCK-B R EC50 (p-ERK) [3] [nM] | mCCK-B R EC50 (p-ERK) [4] [nM] | hGLP-1 R EC50 (cAMP) [5] [nM] | hGLP-1 R EC50 (cAMP) [6] [nM] | hGLP-1 R EC50 (cAMP) [7] [nM] | hCCK-B R EC50 (p-ERK) [8] [nM]
1 | GLP-1(7-36)-Peg3-SKK-[Gln1,Leu15]Gastrin17 (peptide) | 8.76 | 51.1 | 8.8 | 51 |  |  |  | 
2 | [Lys(Hexadecanoyl-isoGlu)26]GLP-1(7-37)-Peg3-Peg3-[Leu4]Gastrin6 (peptide) |  |  | 26 |  |  |  |  | 
3 | [Arg34]GLP-1(7-37)-Peg3-Peg3-[Leu4]Gastrin6 (peptide) |  |  | 24 |  |  |  |  | 
4 | [Arg26,34,Lys(Hexadecanoyl-isoGlu)36]GLP-1(7-37)-Peg3-Peg3-[Leu4]Gastrin6 (peptide) |  |  | 78 |  | 0.11 |  |  | 
5 | GLP-1(7-36)-8Aoc-SKK-[Gln1,Leu15]Gastrin17 (peptide) | 51.9 | 82.5 | 52 | 83 |  |  |  | 
6 | [Aib8,Arg34,Lys(Hexadecanoyl-isoGlu)26]GLP-1(7-37)-Peg3-Peg3-[Leu4]Gastrin6 (peptide) |  |  | 59 |  | 0.088 |  |  | 
7 | GLP-1(7-36)-SKK-[Gln1,Leu15]Gastrin17 (peptide) | 15.6 | 58.6 | 16 | 59 | 0.031 | 0.116 |  | 
8 | [Aib8,Arg34]GLP-1(7-37)-Peg3-Peg3-[Leu4]Gastrin6 (peptide) |  |  | 42 |  | 0.043 |  |  | 
9 | h[Leu15]Gastrin17 (from UniProt P01350 76-92) (peptide) |  |  | 2.4 |  |  |  |  | 
10 | GLP-1(7-36)-[Gln1,Leu15]Gastrin17 (peptide) | 25.9 | 73.1 | 26 | 73 | 0.03 | 0.145 |  | 
11 | h[Gln1,Leu15]Gastrin17 (peptide) |  | 18.2 |  | 18 |  |  |  | 
12 | [Arg34,Lys(Hexadecanoyl-isoGlu)26]GLP-1(7-37)-Peg3-Peg3-[Leu4]Gastrin6 (peptide) |  |  | 29 |  |  |  |  | 
13 | GLP-1(7-36)-DBF-SKK-[Gln1,Leu15]Gastrin17 (peptide) | 25.7 | 86.9 | 26 | 87 |  |  |  | 
14 | GLP-1(7-36)-8Aoc-8Aoc-[Gln1,Leu15]Gastrin17 (peptide) | 12.8 | 71.4 | 13 | 71 |  |  |  | 
15 | [Arg26,34,Gly8,Lys(Hexadecanoyl-isoGlu)36]GLP-1(7-37)-Peg3-Peg3-[Leu4]Gastrin6 (peptide) |  |  | 29 |  | 0.12 |  |  | 
16 | GLP-1(7-36)-K-[Gln1,Leu15]Gastrin17 (peptide) | 77.3 | 114 | 77 | 110 | 0.03 | 0.0842 |  | 
17 | GLP-1(7-36)-AAA-[Gln1,Leu15]Gastrin17 (peptide) | 18.8 | 54.1 | 19 | 54 | 0.034 | 0.114 |  | 
18 | CCK-8 (from UniProt P06307 96-103) (peptide) |  | 163 |  | 160 |  |  |  | 
19 | [Lys(Hexadecanoyl-isoGlu)34]GLP-1(7-37)-Peg3-Peg3-[Leu4]Gastrin6 (peptide) |  |  | 18 |  |  |  |  | 
20 | GLP-1(7-36)-Peg3-Peg3-[Gln1,Leu15]Gastrin17 (peptide) |  | 58.3 | 8.2 | 58 |  |  |  | 
21 | HGEGTFTSDLSKQMEKEAVRLFIEWLKN[Peg3][Peg3]YGWLDF-NH2 [[Lys16]Exendin-4(1-28)-Peg3-Peg3-[Leu4]Gastrin6] |  |  |  |  |  |  | 0.032 | 15

Reference: patent US20130143793A1 (ZEALAND PHARMA A S, published 2013)
